Source: the nanobody polyreactivity screen of Harvey et al. (2022)

test: yeast display, Sf9 membrane polyspecificity reagent, FACS + sequencing; frameworks hold sequencing errors
Procedure, shortened: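 Galactose-induced (36–48 hours) yeast carrying a synthetic nanobody display library were exposed to 10% biotinylated, detergent-solubilized Sf9 membrane reagent at 4 °C for 1 hour. FACS followed streptavidin microbead enrichment, using low and high (top ~1%) gates for expression (anti-HA) and reagent binding (streptavidin). Colony PCR, MiSeq 2 × 250 sequencing and CDR-length filtering followed. Labels for polyreactivity reflect the gate of origin.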

Row | Sequence | polyreactivity (PSR sort gate)
1 | QVQLVESGGGLVQAGGSLRLICAASGYTLGPYAMGWYRQAPGKERELVAAITSGGSTYYADSVKGRFPISRDNAKHTVYLQMNSLKPEDSAVYYCNKDKGWLAHSRIWLWYDYWGQGTQVTVSS | low polyreactivity
2 | QVQLVESGGGLVQAGGSLRLICAASRGIFGQYVMGWYRQAPGKERELVAPISSGGNTYADSVKGRFTISRDNAKNTVYLHMNSLKPEDTAVYYCAAPLTGIVEYDYWGQGTQVTVSS | low polyreactivity
3 | QVQLVESGGGLVQAGGSLRLICADYGRTFKWYAMGWYRQAPGKERELVAVITGLGGSTYYADSVKGRFTISRDNAKNTVYLQMKSLKPEDTAVYYCAARGYSHVASRLYYYWGQGNQVTVSS | high polyreactivity
4 | QVQLVESGGGLVQAGGSLRLICAGSGSNFSYYAMGWYRQAPGKERELVAAITWSGGTTSYADSVKGRFTISRDNAKNTVYLQMNSLKPEDSAVNYFARSIYVVSAQYDYWGQGTQVTVSS | low polyreactivity
5 | QVQLVESGGGLVQAGGSLRLICPASGITFVYYAMVWYRQSPGKEMELVATNTKSGVSTYYADSVKGRFTISRDNAKNTVYLQMNSLKPEDTAVYYCAKEVSYRFYWTYDYWGQGTKVTVSS | low polyreactivity
6 | QVQLVESGGGLVQAGGSLRLIFAASGRTFFSYVMGWYIQAPGKERELVAAITWRGGSTYYADSVKGRFTISRDNAKNTVYLQMNSLKPEDTAVYYCAAPSHGSTSDRYYKFYYWGQGTQVTVSS | high polyreactivity
7 | QVQLVESGGGLVQAGGSLRLISAASGFIFKIYAMGWHRQAPGKERDLVAAISSGDNTNYADSVKGRFTISRDNAKNTVYLQMNSLKPEDTAVYYCADRAYRWRSFSTMYYWGQGTQVTVSS | high polyreactivity
8 | QVQLVESGGGLVQAGGSLRLISAASGGISSLNAMGWYSQAPGKERELVAAIDWIGGSTYYADSVKGRFTISRDTAKNTVYLQKNSLKPEDTAVYYCGKRGVYGDRYYYWGQGTQVTVSS | high polyreactivity
9 | QVQLVESGGGLVQAGGSLRLISAASGLIFKWYGMVWYRQAPGKEREFVAAITSSGTSTYYADSVKGRFTISRDNAKNTVDLHMNSLKPEDTAVYYCNARTKHRYEYDYWGQGTQVTVSS | high polyreactivity
10 | QVQLVESGGGLVQAGGSLRLISAASGSIFERYAMGWYRQAPGKERELVAAITWTGGSTYYADSVKGRFTISRDNAKNTVYLQMNSLKPEDTAVYYCAADYLYPLWGWYDYWGQGTQVTVSS | low polyreactivity
11 | QVQLVESGGGLVQAGGSLRLISAASGSIFYRNAMGWYRQAPGKERDLVAAISSDGSTNYADSVKGRFTISRDNAKNTVYLQMNSLKPEDTAVYYCAAPWTQILDFWGQGTQVTVSS | low polyreactivity
12 | QVQLVESGGGLVQAGGSLRLISAASGSSFSSYAMGWYRQAPGKERDLVAAISWRGGSTYYADSVKGRFTISRDNAKNTVYLQMNSLKTEDTAVYFCAKLVRGVGTEMYYWGQGTQVTVSS | high polyreactivity
13 | QVQLVESGGGLVQAGGSLRLLCAASGSTIVTNAMGWYRQAPGKERELVAAITSSDGITYYADSVKGRFTISRDNAKNTVYLQMNSLKPEDTAVYYCAAELVSVRYLYALHDRDYWGQGTQVTVSS | low polyreactivity
14 | QVQLVESGGGLVQAGGSLRLNCAASGGIFRGYAMVWYRQAPGKERELVATITYSGTSTYYADSVKGRFTISRDYAKNTVYLQMNSLKPEYTAVYYCNADWWFKYDYWGQGTQVTVSS | low polyreactivity
15 | QVQLVESGGGLVQAGGSLRLNCAASGRSFQSYAMGWYRTAPGKERELVAAITWSGGDTYYADSVKGRFTISRDNAKNTVYLQMNSLKPEDTAVYYCAKEQGLYSVSPYDYWGQGTQVTVSS | low polyreactivity
16 | QVQLVESGGGLVQAGGSLRLNCAASGRTLVLYVMGWYRQAPGKERELVAAISRSGGRTYYADSVKGRFTISRDNAKNTVYLQMNSLKPEDTAVYYCAAYTSYASDYWGQGTLVTVSS | high polyreactivity
